B1: anti-c-Met HuMab 005 (IgG1) (antibody, V domains shown)
VH: QVQLVQSGAEVKKPGSSVKVSCKASGGTFSSYGFGWVRQAPGQGLEWMGRISPILGIANYAQMFQGRVTITADKSTSTAYMELSSLRSEDTAVYYCARDVGYDWPDTFDIWGQGTMVIVSS
VL: DIQMTQSPSSLSASVGDRVTITCRASQGISSWLAWYQQKPEKAPKSLIYAASSLQSGVPSRFSGGGSGTDFTLTISSLQPEDFATYYCQQYNSFPPTFGQGTKVEIK
notes: also called TH1016-005; PC1016-005
B2: IgG1-1016-022 (antibody, V domains shown)
VH: QVQLVESGGGVVQPGRSLRLSCAASGFTFSSYAMHWVRQAPGKGLEWVAVISYDGSNKYYADSVKGRFTISRDNSKNTLYLQMNSLRAEDTAVYYCARELLWFGELWGYFDLWGRGTLVTVSS
VL: B1 VL with L11V, Q38H, E41G, S46L, G65S, Q90E, Y91A, N92S, P95T, P96W
notes: also called TH1016-022; PC1016-022
B3: anti-c-Met HuMab 006 (IgG1) (antibody, V domains shown)
VH: B1 VH with Y32F, F34I, S52F, I57T, S84T, W104S, P105A, T107A, I118T
VL: B1 VL with G65S, F94Y
notes: also called TH1016-006; PC1016-006
B4: anti-c-Met HuMab 008 (IgG1) (antibody, V domains shown)
VH: EVQLVQSGAEVKKPGESLKISCKGSGYSFTSYWIGWVRQMPGKGLEWMGIIYPGDSETRYSPSFQGQVTISADKSISTAYLQWSSLKASDTAMYYCARQEITGEFDYWGQGTLVTVSS
VL: AIQLTQSPSSLSASVGDRVTITCRASQGISSALAWYQQKPGKAPKLLIYDASSLESGVPSRFSGSGSGTDFTLTISSLQPEDFATYYCQQFNSYPRTFGQGTKVEIK
notes: also called TH1016-008; PC1016-008

Where a chain is given by its changes, count along the chain named.

One assay deals with T1, cMetECDHis (human, UniProt P08581 25-932, limits assumed, biotinylated in the cross-block ELISA of Example 17).
T1 construct: Expressed in HEK-293F cells; also called soluble cMetECDHis; biotinylated cMetECDHis
Description: cross-block ELISA; competitor 005. The method, then:
(§1) First, the optimal coating concentrations of the tested anti-c-Met antibodies and the optimal cMetECDHis concentration were determined. Therefore, ELISA wells were coated overnight at 4° C. with anti-c-Met HuMabs serially diluted in PBS (8 μg/mL in 2-fold dilutions). Next, the ELISA wells were washed with PBST (PBS supplemented with 0.05% Tween-20 [Sigma-Aldrich, Zwijndrecht, The Netherlands]) and blocked for one hour at room temperature (RT) with PBSTC (PBST supplemented 2% [v/v] chicken serum [Gibco, Paisley, Scotland]). Subsequently, the ELISA wells were washed with PBST and incubated for one hour at RT with biotinylated cMetECDHis serially diluted in PBSTC (1 μg/mL in 2-fold dilutions). Unbound biotinylated cMetECDHis was washed away with PBST, and bound biotinylated cMetECDHis was incubated for one hour at RT with 0.1 μg/mL Streptavidin-poly-HRP (Sanquin, Amsterdam, The Netherlands) diluted in PBST.
(§2) ELISA wells were coated with anti-c-Met antibody at a sub-optimal dose as described above. After blocking of the ELISA wells, they were incubated with the predetermined concentration of biotinylated cMetECDHis in the presence of an excess of anti-c-Met antibody. The reaction was developed as described above. Residual binding was expressed as a percentage relative to the binding observed in the absence of competitor antibody.
In general terms: An ELISA detects its analyte on a solid surface through an enzyme-linked reagent.
As for B1, the “residual binding, % of no competitor” value amounted to 7.7%.

As for B2, the “residual binding, % of no competitor” value came out at 37.9%.

As for B3, the “residual binding, % of no competitor” value is 11.3%.

On to B4, for which the “residual binding, % of no competitor” value is 63.9%.

A further assay has as its target T1, cMetECDHis. Description: cross-block ELISA; competitor 006. The method, then: as §1, §2
As to B1, the “residual binding, % of no competitor” value was determined as 18.2%.

On to B2, for which the “residual binding, % of no competitor” value is 60.5%.

Take B3: the “residual binding, % of no competitor” value is 14.6%.

Take B4: the “residual binding, % of no competitor” value worked out at 47.3%.

The next assay has as its target T1, cMetECDHis. As to the kind of experiment: cross-block ELISA; competitor 008. The method, then: as §1, §2
Regarding B1, the “residual binding, % of no competitor” value is 81.9%.

Turning to B2, the “residual binding, % of no competitor” value amounted to 94.1%.

As to B3, the “residual binding, % of no competitor” value turned out to be 58.8%.

Turning to B4, the “residual binding, % of no competitor” value amounted to 5.4%.

In a further assay the target is T1, cMetECDHis. As to the kind of experiment: cross-block ELISA; competitor 022. The method, then:
as §1, §2
As for B1, the “residual binding, % of no competitor” value amounted to 4.9%.

Take B2: the “residual binding, % of no competitor” value stood at 3.8%.

B3: the “residual binding, % of no competitor” value was found to be 4.6%.

Turning to B4, the “residual binding, % of no competitor” value is 82.1%.

The next assay concerns the target T1, cMetECDHis. Description: cross-block ELISA; competitor 024. The method, then: as §1, §2
For the molecule B1, the “residual binding, % of no competitor” value worked out at 114%.

B2: the “residual binding, % of no competitor” value turned out to be 99.4%.

For the molecule B3, the “residual binding, % of no competitor” value was determined as 113%.

B4: the “residual binding, % of no competitor” value is 103%.

The target of the next assay is T1, cMetECDHis. Description: cross-block ELISA; competitor 035. The method, then:
as §1, §2
Turning to B1, the “residual binding, % of no competitor” value was 84.9%.

Regarding B2, the “residual binding, % of no competitor” value worked out at 92.4%.

As for B3, the “residual binding, % of no competitor” value was 67.5%.

For the molecule B4, the “residual binding, % of no competitor” value stood at 32.9%.

Another assay addresses T1, cMetECDHis. As to the kind of experiment: cross-block ELISA; competitor 045. As to the method: as §1, §2
As to B1, the “residual binding, % of no competitor” value was 117%.

For B2, the “residual binding, % of no competitor” value came out at 95.7%.

As to B3, the “residual binding, % of no competitor” value came out at 114%.

Consider B4, for which the “residual binding, % of no competitor” value came out at 100%.

Another assay deals with T1, cMetECDHis. Description: cross-block ELISA; competitor 058. As to the method:
as §1, §2
On to B1, for which the “residual binding, % of no competitor” value worked out at 3.6%.

On to B2, for which the “residual binding, % of no competitor” value was 5.8%.

On to B3, for which the “residual binding, % of no competitor” value was found to be 3.6%.

B4: the “residual binding, % of no competitor” value stood at 40.8%.

In a further assay the target is T1, cMetECDHis. Description: cross-block ELISA; competitor 062. The method, then: as §1, §2
For B1, the “residual binding, % of no competitor” value was found to be 118%.

As for B2, the “residual binding, % of no competitor” value is 99.4%.

Turning to B3, the “residual binding, % of no competitor” value is 119%.

As to B4, the “residual binding, % of no competitor” value came out at 100%.

For another assay, the target named is T1, cMetECDHis. Description: cross-block ELISA; competitor 064. The method, then: as §1, §2
In the case of B1, the “residual binding, % of no competitor” value was determined as 118%.

On to B2, for which the “residual binding, % of no competitor” value came out at 102%.

B3: the “residual binding, % of no competitor” value worked out at 122%.

For B4, the “residual binding, % of no competitor” value is 107%.

A further assay concerns the target T1, cMetECDHis. As to the kind of experiment: cross-block ELISA; competitor 068. The method, then:
as §1, §2
For the molecule B1, the “residual binding, % of no competitor” value amounted to 129%.

As to B2, the “residual binding, % of no competitor” value was determined as 104%.

B3: the “residual binding, % of no competitor” value was determined as 129%.

B4: the “residual binding, % of no competitor” value turned out to be 112%.

A further assay concerns the target T1, cMetECDHis. As to the kind of experiment: cross-block ELISA; competitor 069. As to the method: as §1, §2
As for B1, the “residual binding, % of no competitor” value amounted to 124%.

As for B2, the “residual binding, % of no competitor” value stood at 99.6%.

Take B3: the “residual binding, % of no competitor” value came to 124%.

Consider B4, for which the “residual binding, % of no competitor” value was found to be 104%.

In the next assay the target is T1, cMetECDHis. As to the kind of experiment: cross-block ELISA; competitor 098. As to the method:
as §1, §2
On to B1, for which the “residual binding, % of no competitor” value amounted to 110%.

On to B2, for which the “residual binding, % of no competitor” value came to 105%.

Take B3: the “residual binding, % of no competitor” value amounted to 111%.

For B4, the “residual binding, % of no competitor” value stood at 107%.

The next assay deals with T1, cMetECDHis. Description: cross-block ELISA; competitor 101. The method, then:
as §1, §2
Turning to B1, the “residual binding, % of no competitor” value was 103%.

Regarding B2, the “residual binding, % of no competitor” value turned out to be 104%.

As to B3, the “residual binding, % of no competitor” value is 106%.

As to B4, the “residual binding, % of no competitor” value turned out to be 101%.

For the next assay, the target named is T1, cMetECDHis. As to the kind of experiment: cross-block ELISA; competitor 5D5. As to the method:
as §1, §2
B1: the “residual binding, % of no competitor” value was determined as 2.9%.

With B2, the “residual binding, % of no competitor” value came to 4.2%.

For the molecule B3, the “residual binding, % of no competitor” value was found to be 3.1%.

Consider B4, for which the “residual binding, % of no competitor” value came to 32.4%.

In a further assay the target is T1, cMetECDHis. Description: cross-block ELISA; competitor G11-HZ. As to the method:
as §1, §2
For the molecule B1, the “residual binding, % of no competitor” value turned out to be 76.8%.

In the case of B2, the “residual binding, % of no competitor” value turned out to be 85.9%.

As to B3, the “residual binding, % of no competitor” value worked out at 54%.

For the molecule B4, the “residual binding, % of no competitor” value is 2.7%.

The next assay deals with T1, cMetECDHis. As to the kind of experiment: BLI (Octet); antibody captured, cMetECDHis in solution. The method, then: Antibody binding to cMetECDHis was analyzed by means of Bio-Layer Interferometry (BLI) technology on the Octet System (Fortebio, Menlo Park, USA). Anti-human IgG coated biosensors (Fc-specific) were used to capture anti-c-Met antibodies according to the procedure recommended by the manufacturer. cMetECDHis derived from HEK293 cells was loaded on top of the immobilized anti-c-Met antibodies by placing the loaded biosensor into a well containing 10 μg/mL cMetECDHis diluted in 10 times diluted kinetics buffer (Fortebio). The difference in reflection of light (AA, nm) of the biosensor surface due to the binding of cMetECDHis was measured in real time during approximately 10 minutes and was used by the Octet software (V4.0, Fortebio) to calculate the association constant (kₐ [1/M×s]). Next, the loaded biosensor was placed into a well containing only kinetics buffer (10 times diluted in PBS) to determine the dissociation constant (kd [1/s]). Kinetics analysis was performed to determine the affinity (KD [M]) using model 1:1 (langmuir). As a positive control, 0.2 μg/mL 5D5 IgG1 produced in HEK293 cells, was used.
In general terms: BLI is a label-free optical method that tracks binding on a fibre tip over time.
As usually defined, the Kd is the equilibrium constant for the complex coming apart. A higher Kd goes with weaker binding. As a reminder, the koff is the first-order rate constant of dissociation. Lower therefore signals slow dissociation. One may read the kon as a measure of how fast the partners come together. A high value points to faster complex formation. On to B1, for which the Kd was determined as 7.92 nM, the koff was found to be 0.00252 s⁻¹ and the kon was 318000 M⁻¹ s⁻¹.

For B2, the affinity, expressed as Kd, was 1.06 nM; the off-rate constant (koff) amounted to 0.000251 s⁻¹; the kon came out at 236000 M⁻¹ s⁻¹.

B3 returned a Kd of 9.89 nM, a koff of 0.0042 s⁻¹ and an on-rate (kon) of 425000 M⁻¹ s⁻¹.

Molecule B4 yielded a Kd of 5.12 nM, a koff of 0.00157 s⁻¹ and a kon of 308000 M⁻¹ s⁻¹.

(Values after patent US20150329642A1 (Genmab, published 2015).)
